Source: PMC5880107, “The Sequence-specific Peptide-binding Activity of the Protein Sulfide Isomerase AGR2 Directs Its Stable Binding to the Oncogenic Receptor EpCAM*^([image sbox.jpg])” (Molecular & Cellular Proteomics : MCP, 2018)

B1: His-AGR2 WT (mature AGR2, amino acids 21-175, N-terminal 6xHis tag; plasmid pmAGR2) [human] / His-EpEX-CO, extracellular domain of EpCAM (amino acids 24-265), N-terminal 6xHis tag [human] (parent complex)
chain 1: RDTTVKPGAKKDTKDSRPKLPQTLSRGWGDQLIWTQTYEEALYKSKTSSKPLMIIHHLDECPHSQALKKVFAENKEIQKLAEQFVLLNLVYETTDKHLSPDGQYVPRIMFVDPSLTVRADITGRYSNRLYAYEPADTALLLDNMKKALKLLKTEL
chain 2: QEECVCENYKLAVNCFVNNNRQCQCTSVGAQNTVICSKLAAKCLVMKAEMNGSKLGRRAKPEGALQNNDGLYDPDCDESGLFKAKQCNGTSMCWCVNTAGVRRTDKDTEITCSERVRTYWIIIELKHKAREKPYDSKSLRTALQKEITTRYQLDPKFITSILYENNVITIDLVQNSSQKTQNDVDIADVAYYFEKDVKGESLFHSKKMDLTVNGEQLDLDPGQTLIYYVDEKAPEFSMQGLK
B2: wt-peptide PTTIYY (non-biotinylated hexapeptide) / His-AGR2 WT (mature AGR2, amino acids 21-175, N-terminal 6xHis tag; plasmid pmAGR2) [human] (parent complex)
chain 1: PTTIYY
chain 2: B1 chain 1

Variants of: B1
Assay: ELISA (His-EpCAM solid phase; His-AGR2 mobile phase); point at 0.5 μg AGR2 (highest dose of the titration); no DTT; read off a plot

Variant | response
chain 1 RDTTVKPGAKKDTKDSRPKLPQTLSRGWGDQLIWTQTYEEALYKSKTSSKPLMIIHHLDECPHSQALKKVFAENKEIQKLAEQFVLLNLVYETTDKHLSPDGQYVPRIMFVDPALTVRADITGRYSNRLYAYEPADTALLLDNMKKALKLLKTEL [chain 1 S114A] | ~160 RLU
chain 1 RDTTVKPGAKKDTKDSRPKLPQTLSRGWGDQLIWTQTYEEALYKSKTSSKPLMIIHHLDECPHSQALKKVFAENKEIQKLAEQFVLLNLVYETTDKHLSPDGQYVPRIMFVDASLTVRADITGRYSNRLYAYEPADTALLLDNMKKALKLLKTEL [chain 1 P113A] | ~150 RLU
chain 1 RDTTVKPGAKKDTKDSRPKLPQTLSRGWGDQLIWTQTYEEALYKSKTSSKPLMIIHHLDECPHSQALKKVFAENKEIQKLAEQFVLLNLVYETTDKHLSPDGQYVPRIMFVAPSLTVRADITGRYSNRLYAYEPADTALLLDNMKKALKLLKTEL [chain 1 D112A] | ~140 RLU

Variants of: B1
Assay: ELISA (His-EpCAM solid phase; His-AGR2 mobile phase); point at 0.5 μg AGR2 (highest dose of the titration); 1 mm DTT at the AGR2-binding stage; read off a plot

Variant | response
chain 1 RDTTVKPGAKKDTKDSRPKLPQTLSRGWGDQLIWTQTYEEALYKSKTSSKPLMIIHHLDECPHSQALKKVFAENKEIQKLAEQFVLLNLVYETTDKHLSPDGQYVPRIMFVDPALTVRADITGRYSNRLYAYEPADTALLLDNMKKALKLLKTEL [chain 1 S114A] | ~160 RLU
chain 1 RDTTVKPGAKKDTKDSRPKLPQTLSRGWGDQLIWTQTYEEALYKSKTSSKPLMIIHHLDECPHSQALKKVFAENKEIQKLAEQFVLLNLVYETTDKHLSPDGQYVPRIMFVDASLTVRADITGRYSNRLYAYEPADTALLLDNMKKALKLLKTEL [chain 1 P113A] | ~35 RLU
chain 1 RDTTVKPGAKKDTKDSRPKLPQTLSRGWGDQLIWTQTYEEALYKSKTSSKPLMIIHHLDECPHSQALKKVFAENKEIQKLAEQFVLLNLVYETTDKHLSPDGQYVPRIMFVAPSLTVRADITGRYSNRLYAYEPADTALLLDNMKKALKLLKTEL [chain 1 D112A] | ~110 RLU

Variants of: B2
Assay: competition ELISA (AGR2 binding to immobilised biotinylated peptide A4 with free competitor peptide); 1 μg AGR2; 100 ng competitor peptide; RLU is AGR2 bound to peptide A4, so lower RLU = stronger competitor binding; DMSO (no competitor) est. 79; read off a plot

Variant | response
chain 1 PTVIYY [chain 1 T3V] | ~35 RLU
chain 1 PTAIYY [chain 1 T3A] | ~6 RLU
chain 1 PTIIYY [chain 1 T3I] | ~75 RLU
chain 1 PTMIYY [chain 1 T3M] | ~8 RLU
chain 1 PTSIYY [chain 1 T3S] | ~7 RLU
chain 1 PTGIYY [chain 1 T3G] | ~12 RLU
chain 1 PTLIYY [chain 1 T3L] | ~66 RLU
chain 1 PTTLYY [chain 1 I4L] | ~44 RLU
chain 1 PTTVYY [chain 1 I4V] | ~55 RLU
chain 1 PTTMYY [chain 1 I4M] | ~80 RLU
chain 1 PTTAYY [chain 1 I4A] | ~83 RLU
chain 1 PCTIYY [chain 1 T2C] | ~80 RLU
chain 1 PSTIYY [chain 1 T2S] | ~83 RLU
chain 1 PATIYY [chain 1 T2A] | ~84 RLU
chain 1 PTTIAY [chain 1 Y5A] | ~84 RLU
chain 1 PTTIWY [chain 1 Y5W] | ~20 RLU
chain 1 PTTIFY [chain 1 Y5F] | ~40 RLU
chain 1 PTTIYF [chain 1 Y6F] | ~25 RLU
chain 1 PTTIYA [chain 1 Y6A] | ~60 RLU
chain 1 ATTIYY [chain 1 P1A] | ~6 RLU
chain 1 MTTIYY [chain 1 P1M] | ~17 RLU
chain 1 GTTIYY [chain 1 P1G] | ~7.5 RLU
chain 1 VTTIYY [chain 1 P1V] | ~11 RLU
chain 1 LTTIYY [chain 1 P1L] | ~15 RLU
chain 1 FTTIYY [chain 1 P1F] | ~6 RLU
chain 1 WTTIYY [chain 1 P1W] | ~9 RLU
chain 1 ITTIYY [chain 1 P1I] | ~7.5 RLU
